Percentage inhibition (%) (% inhibition and pIC50 Category (Activity) data for 2 substances are collected here from patent US12427210B2, “Compounds comprising a fibroblast activation protein ligand and use thereof” (priority 2019, dated 2025).

Assay [1] deals with T1, DPP3 (Homo sapiens (Human)) (UniProt Q9NY33).
T1 sequence: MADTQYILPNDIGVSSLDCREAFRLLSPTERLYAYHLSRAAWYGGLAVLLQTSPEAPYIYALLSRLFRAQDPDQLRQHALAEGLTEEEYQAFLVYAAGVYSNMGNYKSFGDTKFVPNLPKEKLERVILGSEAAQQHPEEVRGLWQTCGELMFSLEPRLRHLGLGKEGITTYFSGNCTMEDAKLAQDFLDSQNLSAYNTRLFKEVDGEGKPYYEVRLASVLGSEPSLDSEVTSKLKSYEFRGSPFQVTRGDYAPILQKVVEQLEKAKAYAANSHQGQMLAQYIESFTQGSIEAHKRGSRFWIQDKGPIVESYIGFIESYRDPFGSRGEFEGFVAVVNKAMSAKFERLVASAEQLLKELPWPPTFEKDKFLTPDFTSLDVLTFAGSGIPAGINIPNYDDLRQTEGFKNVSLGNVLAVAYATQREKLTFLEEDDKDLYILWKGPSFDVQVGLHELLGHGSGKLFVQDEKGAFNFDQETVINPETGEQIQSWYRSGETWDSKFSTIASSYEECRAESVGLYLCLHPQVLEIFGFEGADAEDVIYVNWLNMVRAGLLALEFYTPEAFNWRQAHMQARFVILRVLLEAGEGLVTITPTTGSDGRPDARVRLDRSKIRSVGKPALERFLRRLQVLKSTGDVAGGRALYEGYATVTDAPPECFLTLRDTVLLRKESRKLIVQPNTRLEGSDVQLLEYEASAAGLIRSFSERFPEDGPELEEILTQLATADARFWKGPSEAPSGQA

The target in assay [2] is Recombinant human FAP (R&D systems, #3715-SE) (human).
Sequence of Recombinant human FAP (R&D systems, #3715-SE) (human) (chain, as listed by the source limits assumed): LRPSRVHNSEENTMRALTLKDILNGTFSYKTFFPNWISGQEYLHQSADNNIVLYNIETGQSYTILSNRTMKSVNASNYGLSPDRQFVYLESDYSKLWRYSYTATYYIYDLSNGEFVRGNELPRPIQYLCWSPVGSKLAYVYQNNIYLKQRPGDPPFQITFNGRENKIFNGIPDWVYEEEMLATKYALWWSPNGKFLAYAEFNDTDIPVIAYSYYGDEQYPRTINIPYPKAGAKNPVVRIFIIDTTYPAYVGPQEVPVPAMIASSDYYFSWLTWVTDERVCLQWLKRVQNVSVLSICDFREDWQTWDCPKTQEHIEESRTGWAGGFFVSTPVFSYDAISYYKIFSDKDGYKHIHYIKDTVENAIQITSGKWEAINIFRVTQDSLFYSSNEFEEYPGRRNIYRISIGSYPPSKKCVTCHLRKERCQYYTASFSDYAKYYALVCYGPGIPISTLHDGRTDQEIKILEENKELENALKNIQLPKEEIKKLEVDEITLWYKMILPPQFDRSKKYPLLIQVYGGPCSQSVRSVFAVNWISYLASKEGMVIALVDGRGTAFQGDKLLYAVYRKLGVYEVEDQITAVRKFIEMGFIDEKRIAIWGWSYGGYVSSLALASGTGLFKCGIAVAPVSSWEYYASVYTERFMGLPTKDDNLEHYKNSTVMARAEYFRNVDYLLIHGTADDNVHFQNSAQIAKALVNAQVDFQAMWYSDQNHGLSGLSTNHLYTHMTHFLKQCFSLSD

In the case of “Hex-[Cys(tMeBn(DOTA-AET))-Pro-Pro-Thr-Gln-Phe-Cys]-OH (3BP-3554) (peptide)”, the Percentage inhibition (%) (% inhibition at 10 µM) in assay [1] was -1.
Regarding “Hex-[Cys(tMeBn(DOTA-PP))-Pro-Pro-Thr-Gln-Phe-Cys]-Asp-NH2 (3BP-3407) (peptide)”, the pIC50 Category (Activity) in assay [2] is > 8 pIC50.
